Earlier results, collected in patent US20250099434A1, “METHODS OF TREATING AMYLOID RELATED BRAIN DISORDERS USING NOVEL COMPOUNDS AND ANTIBODIES” (T3D Therapeutics, Inc., priority 2022, published 2025).

Columns and labels:
[1] = human, in vivo; cited from earlier work
[2] = EXPEDITION-3; cited from earlier work
[3] = system: Aβ fibrils; details: cited from earlier work
[4] = system: brain amyloid; details: cited from earlier work

Molecule: Crenezumab: humanized antibody with an IgG4 backbone recognizing multiple forms of aggregated Aβ
- ARIA incidence [1]: low

Molecule: solanezumab: humanized monoclonal IgG1 antibody directed against the mid-domain of the Aβ peptide
- incidence of vasogenic edema (ARIA-E), patients treated [2]: approximately 0.1%

B1: Gantenerumab: fully human IgG1 antibody binding a conformational epitope on Aβ fibrils (antibody, chains of the INN, looked up, V domains shown)
VH: QVELVESGGGLVQPGGSLRLSCAASGFTFSSYAMSWVRQAPGKGLEWVSAINASGTRTYYADSVKGRFTISRDNSKNTLYLQMNSLRAEDTAVYYCARGKGNTHKPYGYVRYFDVWGQGTLVTVSS
VL: DIVLTQSPATLSLSPGERATLSCRASQSVSSSYLAWYQQKPGQAPRLLIYGASSRATGVPARFSGSGSGTDFTLTISSLEPEDFATYYCLQIYNMPITFGQGTKVEIK
- affinity to a conformational epitope on Aβ fibrils [3]: sub-nanomolar
- lowering of brain amyloid, average, florbetapir PET ([4]; dosed as high as 1200 mg subcutaneously): 59 centiloid
- participants who developed ARIA-E ([4]; extension studies): one-third
- patients with ARIA ([4]; highest dose): one third
